“Also recorded” adds a separate entry of the source.
Assays:
Hdm2 210-275 = target: T1, Hdm2 210-275 (Homo sapiens, UniProt Q00987); experiment: CD-based binding assay, induction of β-strand secondary structure with Hdm2 210-275
T1 construct: poly-His (thrombin cleavable, pET28a) (cleaved yes); made in house; host or cells: E. coli BL21(DE3)
Procedure: Circular Dichroism. Spectra were recorded at 25° C. using an Aviv Model 62A DS circular dichroism spectropolarimeter (Aviv Instruments, Inc.) equipped with a thermoelectric temperature control unit. All samples were prepared in 10 mM Tris-HCl, pH 7.0 at 0.02-0.2 mM as determined by amino acid analysis. Spectra were recorded using 1 mm quartz cuvettes and reported spectra are the average of 10 scans over the range […]. Melting experiments were recorded in 10 mm quartz cuvettes with active stirring. The signal at 216 nm (β strand minimum) was used to monitor structural changes and the signal was averaged over 15 sec. The sample temperature was increased in 1° C. steps.
β-strand secondary structure forms when Arf and Hdm2 interact. […] This structural transition is induced when mArfN37 is added to an Hdm2 fragment and when an Hdm2 fragment is added to mArfN37. […] In contrast, the uncomplexed species elute at times consistent with monodisperse, conformationally extended polypeptides. Second, NMR resonances for ^15N-mArfN37 or ^15N-Hdm2 210-304 (and ^15N-Hdm2 210-275) are broadened beyond detection when an unlabeled form of the appropriate binding partner is added to the solution. At mArfN37:Hdm2 210-304 (or mArfN37:Hdm2 210-275) molar ratios that produce maximal β-strand secondary structure based on ellipticity at 200 nm using CD, resonances cannot be observed for the isotope-labeled component of Arf/Hdm2 mixtures. Further, the NMR spectra are consistent with slow exchange between the free and bound states.
Characterization of Arf Hdm2 assemblies. As discussed above, the addition of mArfN37 to Hdm2 210-304 results in the formation of supramolecular assemblies comprised of β-strands. Stepwise addition of sub-stoichiometric amounts of mArfN37 to Hdm2 210-304 increased β-strand secondary structure content as judged by the change in ellipticity at 200 nm using CD. […] The binding of mArfN37 to Hdm2 210-304, as monitored in this way, is saturable. Similar results were obtained when mArfN37 was mixed with the shorter fragment of Hdm2, Hdm2 210-275. Further, saturable binding is also observed when the Hdm2 fragments were added to an excess of mArfN37. These findings indicate that there are a limited number of binding sites for mArfN37 within Hdm2 210-304 and that discreet structures (containing β-strands) form when mArfN37 and Hdm2 210-304 (or 210-275) are mixed. […] Similar behavior is observed when mArfN37 binds Hdm2 210-275.

mArfN37 = target: T2, mArfN37 (Mus musculus, UniProt Q64364); experiment: Surface plasmon resonance: Hdm2 fragments and peptides binding to immobilized His-tagged mArfN37
T2 construct: mouse p19^Arf corresponding to residues 1-37 (mArfN37); made in house; host or cells: E. coli BL21(DE3) (purified 'in a similar manner' to the Hdm2 fragments)
T2 sequence (Q64364 1-37 limits assumed): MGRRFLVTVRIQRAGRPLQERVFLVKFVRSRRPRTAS
Procedure: Surface Plasmon Resonance. Binding studies were performed using a Biacore 3000 surface plasmon resonance (SPR) instrument (Biacore, Inc.). A Tetra-His™ Antibody (Qiagen, Inc.; Cat. #34670) was covalently attached to a carboxymethylated gold surface (C-1 chip; Biacore, Inc.). The carboxymethyl groups on the surface were activated with N-ethyl-N′-(3-dimethylaminopropyl) carbodiimide (EDC) and N-hydroxysuccinimide (NHS) and the antibody was attached at pH 7.4 in 20 mM sodium phosphate buffer, 150 mM NaCl (PBS). Reactive sites remaining on the surface were blocked by reaction with ethanolamine. […] Binding was measured by flowing the non-His-tagged analyte through the reference and ligand-containing flow cells in sequence. […] Changes in the SPR response due to solvent differences and the injection process were monitored by injection of HBS-N buffer alone. […]
Small segments of Arf and Hdm2 participate in Arf/Hdm2 interactions. […] However, because mArfN37 is a relatively small polypeptide, it was determined whether it could bind a correspondingly small segment of Hdm2. To test this hypothesis and to monitor Arf/Hdm2 binding reactions quantitatively, Hdm2 constructs were prepared spanning amino acids 210-304 of SEQ ID NO:8 and 210-275 of SEQ ID NO:8 and then it was determined whether they could bind mArfN37 using surface plasmon resonance (SPR). […]

GFP-p19^Arf = target: T3, GFP-p19^Arf (Mus musculus, UniProt Q64364); experiment: Microinjection and live cell imaging of Texas Red labeled Hdm2 constructs in NIH 3T3 cells lacking Arf; assay type: cell-based; conditions: for localization after nuclear microinjection in the presence of GFP-p19^Arf: transfected with GFP-p19^Arf
T3 construct: expressed in transfected cells; host or cells: NIH 3T3 Arf-/- cells
T3 sequence (Q64364 1-169): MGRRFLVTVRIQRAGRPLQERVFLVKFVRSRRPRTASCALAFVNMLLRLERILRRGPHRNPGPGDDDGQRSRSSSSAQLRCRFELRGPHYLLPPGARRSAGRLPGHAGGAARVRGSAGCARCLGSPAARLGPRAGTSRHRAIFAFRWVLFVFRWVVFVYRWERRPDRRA
Procedure: Fluorescent labeling. Proteins for fluorescence microimaging studies were covalently modified using an amine-reactive, sulfosuccinimidyl ester of TEXAS RED® (C31H29S2N2O6Cl1) (Molecular Probes, Inc., Cat. # C-1171). In brief, purified Hdm2-derived proteins were dialyzed into 100 mM sodium bicarbonate buffer, pH 8.3 at 2-4 mg/ml. The Texas Red™ dye was dissolved in dimethylsulfoxide at 10 mg/ml. Protein and dye 3:1 (vol:vol) were reacted for 1 hour at room temperature followed by purification using size-exclusion chromatography (NAP 5 G-25 columns, Amersham Pharmacia Biotech, Inc.). Labeled protein bands migrated more slowly than unlabeled protein in SDS-polyacrylamide gels consistent with the covalent attachment of dye.
Cell culture and microinjection. NIH 3T3 Arf^−/− cells passage 10-15 were cultured in Dulbecco's modified Eagle's medium (Dulbecco's modified Eagle's medium (DMEM); Gibco-Invitrogen, Inc.), 10% fetal bovine serum (FBS) at 37° C., 7% CO2. […] GFP-Arf positive cells were then located and co-injected with TEXAS RED® (C31H29S2N2O6C1 labeled Hdm2 polypeptides (2 mg/ml in 20 mM Tris-HCl, 100 mM NaCl, pH 7.0) using a Micromanipulator 5171/Transjector 5246 (Eppendorf, AG) in media supplemented with 10 mM HEPES, pH 7.2 to buffer cell media during injection and imaging. Representative cells were imaged over time. An Axiovert 135 TV inverted fluorescence microscope with an automated stage controller (Carl Zeiss, Inc.) and circulating water bath heater (Fisher) was used for both microinjection and imaging. Images were acquired with a Zeiss 40×NA=1.30 oil objective and MicroMax CCD camera (Princeton Instruments Inc.) operated with MetaMorph Version 4.01 imaging software. […]
TEXAS RED® (C31H29S2N2O6Cl1) labeled Hdm2 deletion constructs containing residues 210-275, 210-304, 277-350 and 277-491 were individually injected into cells in the absence or presence of the GFP-p19^Arf fusion protein. […] The use of live cell imaging also allowed the kinetics of localization to be monitored. […]

T1 sequence (Q00987 210-275): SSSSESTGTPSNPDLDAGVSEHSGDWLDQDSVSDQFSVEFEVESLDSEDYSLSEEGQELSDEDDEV

Q: “human A2 (16-30): peptide containing the second human Arf motif, residues 16-30 (GPPRVRVFVVHIPRL)” was tested. Which “induction of β-strand secondary structure/assembly when mixed with Hdm2 210-275 (CD)” value (Hdm2 210-275) did it give?
A: Its value is “fail to induce β-strand assembly”.

Q: Which “binding of Hdm2 fragment to His-tagged mArfN37 immobilized on SPR biosensor surface” value (mArfN37; Hdm2 protein fragments as analyte, no binding to control surface) does the source give for “Hdm2 210-304: Arf-binding domain of Hdm2, amino acids 210-304 of SEQ ID NO:8” here?
A: Its value is “bind tightly”.

Q: What about the “localization after nuclear microinjection in the absence of Arf” value (GFP-p19^Arf; no GFP-p19^Arf) of the same substance?
A: The value was “evenly dispersed in the nucleoplasm”.

Q: And the “localization after nuclear microinjection in the presence of GFP-p19^Arf” value (GFP-p19^Arf)?
A: Its value is “co-localized within nucleoli; also recorded: nucleolar localization”.

Q: How did the “induction of β-strand secondary structure/assembly when mixed with Hdm2 210-275 (CD)” value (Hdm2 210-275) turn out when “MVRRFLVTLRIRRA (listed as Homo sapiens) [human A1 (1-14), peptide of the first Arf motif of human p14^Arf, residues 1-14]” was run?
A: Its value is “interaction”.

Q: With “mouse A2 (16-30): peptide corresponding to the second mouse Arf motif, residues 16-30 (RPLQERVFLVKFVRS)” as the substance, how does the “induction of β-strand secondary structure/assembly when mixed with Hdm2 210-275 (CD)” value (Hdm2 210-275) read?
A: Its value is “fail to induce β-strand assembly”.

Q: With “Hdm2 277-491: Texas Red labeled Hdm2 deletion construct containing residues 277-491” as the substance, how does the “localization after nuclear microinjection in the presence of GFP-p19^Arf” value (GFP-p19^Arf) read?
A: Its value is “nucleolar localization”.

Q: How did the “relative affinity of Hdm2 synthetic peptides for mArfN37 (SPR)” value (mArfN37; 15 amino acid peptides of the central region of Hdm2) turn out when “peptide containing residues 290-304: short synthetic Hdm2 peptide, residues 290-304 of SEQ ID NO:8 (SFEEDPEISLADYWK; listed as Homo sapiens)” was run?
A: Its value is “modest affinity”.

Q: Which “induction of β-strand secondary structure/assembly when mixed with Hdm2 210-275 (CD)” value (Hdm2 210-275) does the source give for “mouse A1 (1-14): peptide corresponding to the first mouse Arf motif, residues 1-14 (MGRRFLVTVRIQRA)” here?
A: Its value is “interaction”.
